Test results taken from PMC1783847.

Molecular target: Bluetongue virus serotype 10 outer capsid protein VP2, unmodified full-length (Bluetongue virus serotype 10 (BTV-10))
Test: SDS-PAGE of non-denatured samples with western blot

Bluetongue virus serotype 10 outer capsid protein VP2, unmodified full-length (natural protein)
stoichiometry N: 3
